The values below come from paper PMC6086383 (Archives of biochemistry and biophysics, 2018).

The target of this experiment is porcine milk butyrylcholinesterase (Sus scrofa (domestic pig), UniProt A0A4X1VEU5). As to the kind of experiment: ELISA.
porcine milk butyrylcholinesterase, sequence (P32752 whole entry): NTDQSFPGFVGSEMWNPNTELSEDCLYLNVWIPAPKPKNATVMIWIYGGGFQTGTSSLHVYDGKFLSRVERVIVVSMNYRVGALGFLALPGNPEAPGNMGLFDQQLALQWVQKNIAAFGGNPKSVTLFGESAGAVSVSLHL

B1: mouse anti-HuBChE monoclonal antibody B2 18-5 (antibody, V domains shown)
VH: QVQLQQSGAELVRPGSSVKISCKASGYAFSDYWMNWVKQRPGQGLEWIGQIYPGDGDTYYNGKFKGKATLTADKSSSTAYMQLSSLISEDSAVYFCARSRPLLDYSMHYWGQGASVTVSS
VL: DIQMTQSSSSFSVSLGDRVTITCKTSEDIYNRLAWYQQKPGNAPRLLISGATSLETGVPSRFSGSGSGEDFTLSITSLQTEDVATYYCQQYWSTPYTFGGGTKLEIK
B1: the binding result was “no binding”.
